In PMC10580950:

Tests used:
[1] = tested on: OxyR (Streptomyces gilvosporeus F607); assay: MST; settings: EMSA: 20 mM Tris pH 7.5, 60 mM KCl, 2 mM EDTA, 0.5 mM DTT, 4% Ficoll, 1 ug poly(dI-dC), 20 uL, 15-25 C, 30 min, MST: 50 mM HEPES pH 7.4, 0.05% Tween 20, room …
[2] = tested on: OxyR C212D (mimic of overoxidized OxyR) (Streptomyces gilvosporeus F607); assay: MST; settings: overoxidized OxyR (C212D mimic per Results); EMSA: 20 mM Tris pH 7.5, 60 mM KCl, 2 mM EDTA, 0.5 mM DTT, 4% Ficoll, 1 ug poly(dI-dC), 20 uL, 15-25 C, 30 min; MST: 50 mM HEPES pH 7.4, 0.05% Tween 20, room …

psgnM (redox EMSA and MST)
Kd ([1]; oxidized OxyR (H2O2)): 45.9 nM | Kd ([1]; reduced OxyR (DTT)): 135 nM | Kd [2]: 324 nM
